Source: IntAct's records for PubMed 25803835

B1: Serine/threonine-protein kinase TBK1 (Homo sapiens), Q9UHD2 (parent)
chain: MQSTSNHLWLLSDILGQGATANVFRGRHKKTGDLFAIKVFNNISFLRPVDVQMREFEVLKKLNHKNIVKLFAIEEETTTRHKVLIMEFCPCGSLYTVLEEPSNAYGLPESEFLIVLRDVVGGMNHLRENGIVHRDIKPGNIMRVIGEDGQSVYKLTDFGAARELEDDEQFVSLYGTEEYLHPDMYERAVLRKDHQKKYGATVDLWSIGVTFYHAATGSLPFRPFEGPRRNKEVMYKIITGKPSGAISGVQKAENGPIDWSGDMPVSCSLSRGLQVLLTPVLANILEADQEKCWGFDQFFAETSDILHRMVIHVFSLQQMTAHKIYIHSYNTATIFHELVYKQTKIISSNQELIYEGRRLVLEPGRLAQHFPKTTEENPIFVVSREPLNTIGLIYEKISLPKVHPRYDLDGDASMAKAITGVVCYACRIASTLLLYQELMRKGIRWLIELIKDDYNETVHKKTEVVITLDFCIRNIEKTVKVYEKLMKINLEAAELGEISDIHTKLLRLSSSQGTIETSLQDIDSRLSPGGSLADAWAHQEGTHPKDRNVEKLQVLLNCMTEIYYQFKKDKAERRLAYNEEQIHKFDKQKLYYHATKAMTHFTDECVKKYEAFLNKSEEWIRKMLHLRKQLLSLTNQCFDIEEEVSKYQEYTNELQETLPQKMFTASSGIKHTMTPIYPSSNTLVEMTLGMKKLKEEMEGVVKELAENNHILERFGSLTMDGGLRNVDCL
B2: Serine/threonine-protein kinase TBK1 (Homo sapiens), Q9UHD2 (parent)
chain: B1 chain
partner: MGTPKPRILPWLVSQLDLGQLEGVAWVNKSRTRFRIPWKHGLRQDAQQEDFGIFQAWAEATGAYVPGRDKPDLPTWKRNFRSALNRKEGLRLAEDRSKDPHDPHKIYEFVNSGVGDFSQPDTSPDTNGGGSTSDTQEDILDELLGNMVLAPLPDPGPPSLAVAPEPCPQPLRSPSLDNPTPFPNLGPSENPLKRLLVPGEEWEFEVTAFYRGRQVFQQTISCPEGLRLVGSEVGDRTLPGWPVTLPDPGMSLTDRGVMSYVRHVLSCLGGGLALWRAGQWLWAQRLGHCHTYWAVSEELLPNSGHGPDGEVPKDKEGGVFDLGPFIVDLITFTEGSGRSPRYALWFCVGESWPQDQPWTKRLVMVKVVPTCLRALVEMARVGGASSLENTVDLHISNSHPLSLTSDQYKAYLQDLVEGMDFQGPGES

Variants of: B1
Details: with optn_human OPTN

effect of a mutation on the interaction	Variant
disrupting interaction strength	M559R
with no effect	K38A
increasing interaction strength	R47H
with no effect	R308Q
decreasing interaction strength	R357Q

Variants of: B1
Details: with optn_human OPTN
Remark: another data set of the same source

effect of a mutation on the interaction	Variant
disrupting interaction strength	E696K
disrupting interaction strength	R357Q

Variants of: B2
Details: with irf3_human IRF3, Q14653

effect of a mutation on the interaction	Variant
disrupting interaction strength	M559R
increasing interaction strength	R47H

Second part, the variant before the results:

Variant	effect of a mutation on the interaction
R308Q	decreasing interaction strength
E696K	decreasing interaction strength
R357Q	disrupting interaction strength
